Biological target: CD215 (IL-15Rα), CD122 (IL-15Rβ), and CD132 (IL-15Rγ) proteins expressed together on the HEK Blue cell line
Experiment: cell-based or functional assay

EC50 (nM), SEAP reporter at 620 nm, HEK Blue cell line: 0.007 nM
Substance: Wild-type IL-2 (from UniProt P60568 21-153) (ligand)
